{
  "source": "patent US12122830",
  "about": "(ABL BIO, dated 2024)",
  "key": {"[1]": {"molecular_target": "T1, recombinant ROR1-His (Sino Biological, 13968-H08H) (human, UniProt Q01973 30-406)", "T1 construct": "extracellular domain; Bought; also called human ROR1 antigen; not shown: His tag", "T1 sequence (Q01973 30-406)": "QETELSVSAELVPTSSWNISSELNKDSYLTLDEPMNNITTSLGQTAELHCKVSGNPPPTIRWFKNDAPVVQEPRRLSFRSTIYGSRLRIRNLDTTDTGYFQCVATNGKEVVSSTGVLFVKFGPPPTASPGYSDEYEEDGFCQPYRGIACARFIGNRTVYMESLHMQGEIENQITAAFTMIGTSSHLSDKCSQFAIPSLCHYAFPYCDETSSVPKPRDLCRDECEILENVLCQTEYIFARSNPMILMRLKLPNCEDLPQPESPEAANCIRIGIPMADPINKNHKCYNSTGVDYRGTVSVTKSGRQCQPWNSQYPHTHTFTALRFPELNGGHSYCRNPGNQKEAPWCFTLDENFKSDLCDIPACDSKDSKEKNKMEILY", "experiment": "BLI (Octet), ROR1-His loaded on biosensor, IgG in solution, 1:1 fitting", "description": "A 96 well black microplate (greiner bio one) in a biosensor tray case was installed, and 200 µl of 10×KB or D.W was put in 8 wells each. 8 sensors, Anti Penta His biosensors or AR2G biosensors (ForteBio, USA), were placed for 10 min for hydration. 600 µl of Analytic samples were diluted 2 folds or 3 folds to desired concentrations. It was diluted using 1×KB or 10×KB to reach a concentration of 30~0.021 nM. For antigen fixation, 1 µg/mL of a recombinant ROR1-His (Sino Biological, 13968-H08H) was diluted with 10×KB or Sodium Acetate pH5 buffer. For fixation, threshold was set to be 0.3 nmat the loading step. The experiment was performed for 3 min~10 min of association and for 20 min of dissociation. The prepared buffer was put into a new 96 well black microplate in accordance with octet program template in order. 10×KB or D.W 200 µl used as Baseline1 was put. 200 µl of the antigen ROR1-His protein (1 µg/mL) was loaded. 10×KB or D.W 200 µl used as Baseline2 was put. 200 µl of 10×KB buffer or 1×KB corresponding the diluted antibody in 30~0.021 nM, Reference blank was put into each well. The temperature of the experimental plate was fixed at 30° C. After placing all samples, the device was activated. After the experiment was finished, the result was uploaded on Octet Analysis 9.0 software, and then KD value was calculated using 1:1 fitting, and the result was described in the following Table 6. […]"}, "[2]": {"molecular_target": "T2, human ROR1 expressed on the cell surface (human, UniProt Q01973 30-937)", "T2 construct": "whole, on cells; On JeKo-1 and Mino cells and other cancer cell lines (endogenous) and on transfected CHO and MC38 cells; also called cell surface-expressed ROR1; CHO-human ROR1", "T2 sequence (Q01973 30-937)": "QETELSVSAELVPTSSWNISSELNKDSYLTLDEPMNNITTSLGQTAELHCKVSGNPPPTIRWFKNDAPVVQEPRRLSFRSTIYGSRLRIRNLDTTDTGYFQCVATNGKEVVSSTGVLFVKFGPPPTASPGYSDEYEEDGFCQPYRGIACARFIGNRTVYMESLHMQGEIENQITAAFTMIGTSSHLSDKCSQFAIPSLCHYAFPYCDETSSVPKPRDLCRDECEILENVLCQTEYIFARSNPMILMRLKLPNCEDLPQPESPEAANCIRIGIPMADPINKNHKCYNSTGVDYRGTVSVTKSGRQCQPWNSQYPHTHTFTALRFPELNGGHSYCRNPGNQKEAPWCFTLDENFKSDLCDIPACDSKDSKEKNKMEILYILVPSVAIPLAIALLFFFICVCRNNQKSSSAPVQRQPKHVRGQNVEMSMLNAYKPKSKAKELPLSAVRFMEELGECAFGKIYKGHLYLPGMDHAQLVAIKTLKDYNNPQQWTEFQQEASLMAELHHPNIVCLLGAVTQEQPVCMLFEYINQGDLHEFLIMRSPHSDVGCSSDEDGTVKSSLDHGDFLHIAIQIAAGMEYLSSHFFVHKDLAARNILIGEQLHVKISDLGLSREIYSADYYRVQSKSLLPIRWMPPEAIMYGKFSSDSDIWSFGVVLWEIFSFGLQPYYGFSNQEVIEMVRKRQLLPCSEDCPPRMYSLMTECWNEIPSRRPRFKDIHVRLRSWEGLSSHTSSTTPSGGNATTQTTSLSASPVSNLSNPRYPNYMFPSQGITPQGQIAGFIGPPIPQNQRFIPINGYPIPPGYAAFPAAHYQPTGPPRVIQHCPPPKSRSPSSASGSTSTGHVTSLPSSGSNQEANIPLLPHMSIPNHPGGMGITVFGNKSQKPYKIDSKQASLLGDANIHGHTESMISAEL", "experiment": "flow cytometry on Kasumi-2 cells (ALL), C2E3 IgG at 10 µg/mL, MFI of anti-ROR1 / MFI of 2nd Ab", "description": "(§1) For the cell lines, the binding to ROR1 was analyzed with FACS (FACSCalibur, BD Biosciences) by using the anti-ROR1 antibody of the present invention.\n(§2) Specifically, after disassociating each cell line and washing in PBS, the number of cells was counted and set as 2 ×10^5 cells/200 µl PBS, and then the clone C2E3 among ROR1 monoclonal antibodies prepared in Example 3 was treated in 10 µg/mL, and it was reacted at 4° C. for 1 hour. After reaction, cells were washed in PBS, and then the FITC-labeled constant region (Fc)-specific antibody (Goat anti-human IgG FITC conjugate, Fc specific, Sigma, F9512, concentration: 2.0 mg/ml) was suspended in 2 µl/1 ×10^5 cells/200 µl PBS, and it was reacted at 4° C. for 1 hour. After reaction, cells were washed in PBS, it was analyzed using a FACSCalibur device. The negative control group was treated only with the FITC-labeled constant region (Fc)-specific antibody. To compare the expression degrees of ROR1 among the cancer cell lines, the value of the result for the peak shift in the experimental group treated with the ROR1 monoclonal antibody (C2E3) of the present invention was divided by the result for the peak shift in the control group (Mean Fluorescence Intensity Ratio MFI Ratio: MFI of anti-ROR1/MFI of 2nd Ab)."}, "[3]": {"molecular_target": "T2, human ROR1 expressed on the cell surface", "experiment": "flow cytometry on H460 cells (lung cancer), C2E3 IgG at 10 µg/mL, MFI of anti-ROR1 / MFI of 2nd Ab", "description": "as §1, §2"}, "[4]": {"molecular_target": "T2, human ROR1 expressed on the cell surface", "experiment": "flow cytometry on H1437 cells (lung cancer), C2E3 IgG at 10 µg/mL, MFI of anti-ROR1 / MFI of 2nd Ab", "description": "as §1, §2"}, "[5]": {"molecular_target": "T2, human ROR1 expressed on the cell surface", "experiment": "flow cytometry on HT29 cells (colon cancer), C2E3 IgG at 10 µg/mL, MFI of anti-ROR1 / MFI of 2nd Ab", "description": "as §1, §2"}, "[6]": {"molecular_target": "T2, human ROR1 expressed on the cell surface", "experiment": "flow cytometry on AGS cells (gastric cancer), C2E3 IgG at 10 µg/mL, MFI of anti-ROR1 / MFI of 2nd Ab", "description": "as §1, §2"}, "[7]": {"molecular_target": "T2, human ROR1 expressed on the cell surface", "experiment": "flow cytometry on BT474 cells (breast cancer), C2E3 IgG at 10 µg/mL, MFI of anti-ROR1 / MFI of 2nd Ab", "description": "as §1, §2"}, "[8]": {"molecular_target": "T2, human ROR1 expressed on the cell surface", "experiment": "flow cytometry on HCC70 cells (breast cancer), C2E3 IgG at 10 µg/mL, MFI of anti-ROR1 / MFI of 2nd Ab", "description": "as §1, §2"}, "[9]": {"molecular_target": "T2, human ROR1 expressed on the cell surface", "experiment": "flow cytometry on MKN-28 cells (gastric cancer), C2E3 IgG at 10 µg/mL, MFI of anti-ROR1 / MFI of 2nd Ab", "description": "as §1, §2"}, "[10]": {"molecular_target": "T2, human ROR1 expressed on the cell surface", "experiment": "flow cytometry on NCI-N87 cells (gastric cancer), C2E3 IgG at 10 µg/mL, MFI of anti-ROR1 / MFI of 2nd Ab", "description": "as §1, §2"}, "[11]": {"molecular_target": "T2, human ROR1 expressed on the cell surface", "experiment": "flow cytometry on SNU-1750 cells (gastric cancer), C2E3 IgG at 10 µg/mL, MFI of anti-ROR1 / MFI of 2nd Ab", "description": "as §1, §2"}, "[12]": {"molecular_target": "T2, human ROR1 expressed on the cell surface", "experiment": "flow cytometry on MDA-MB-231 cells (breast cancer), C2E3 IgG at 10 µg/mL, MFI of anti-ROR1 / MFI of 2nd Ab", "description": "as §1, §2"}},
  "data": [
    {"binder": "C2E3 anti-ROR1 IgG antibody (antibody, V domains shown) VH: EVQLLESGGGLVQPGGSLRLSCAASGFTFSNYAMSWVRQAPGKGLEWVSSISHNSGSTYYADSVKGRFTISRDNSKNTLYLQMNSLRAEDTAVYYCAKFISARKSLGRSYSNGMDVWGQGTLVTVSS VL: QSVLTQPPSASGTPGQRVTISCTGSSSNIGSNDVTWYQQLPGTAPKLLIYADSKRPSGVPDRFSGSKSGTSASLAISGLRSEDEADYYCGTWDYSLSGYVFGGGTKLTVLG", "values": [
      {"measurement": "Kd", "setting": "[1]", "result": 0.424, "unit": "nM"},
      {"measurement": "koff", "setting": "[1]", "result": 0.00231, "unit": "s⁻¹"},
      {"measurement": "Mean Fold Ratio", "setting": "[2]", "result": 11.5},
      {"measurement": "Mean Fold Ratio", "setting": "[3]", "result": 10.9},
      {"measurement": "Mean Fold Ratio", "setting": "[4]", "result": 4.1},
      {"measurement": "Mean Fold Ratio", "setting": "[5]", "result": 3.9},
      {"measurement": "Mean Fold Ratio", "setting": "[6]", "result": 12.3},
      {"measurement": "Mean Fold Ratio", "setting": "[7]", "result": 1.7},
      {"measurement": "Mean Fold Ratio", "setting": "[8]", "result": 3.8},
      {"measurement": "Mean Fold Ratio", "setting": "[9]", "result": 4.9},
      {"measurement": "Mean Fold Ratio", "setting": "[10]", "result": 11.8},
      {"measurement": "Mean Fold Ratio", "setting": "[11]", "result": 3.9},
      {"measurement": "Mean Fold Ratio", "setting": "[12]", "result": 8.8}
    ]}
  ]
}
